Assay results: US7067474B1, “Agents for treating human illnesses based on β-catenin, and the production and use thereof” (Max-Delbruck-Centrum fur Molekulare Medizin, priority 1998, dated 2006)
Where a chain is given by its changes, count along the chain named. “Also recorded” adds a separate entry of the source.

B1: Arg 469: human β-catenin mutant, Arg 469 substituted by alanine (arm 8) (protein)
chain: LHNLSHHREGLLAIFKSGGIPALVKMLGSPVDSVLFYAITTLHNLLLHQEGAKMAVRLAGGLQKMVALLNKTNVKFLAITTDCLQILAYGNQESKLIILASGGPQALVNIMRTYTYEKLLWTTSRVLKVLSVCSSNKPAIVEAGGMQALGLHLTDPSQRLVQNCLWTLRNLSDAATKQEGMEGLLGTLVQLLGSDDINVVTCAAGILSNLTCNNYKNKMMVCQVGGIEALVRTVLRAGDREDITEPAICALAHLTSRHQEAEMAQNAVRLHYGLPVVVKLLHPPSHWPLIKATVGLIRNLALCPANHAPLREQGAIPRLVQLLVRAHQDTQRRTSMGGTQQQFVEGVRMEEIVEGCTGALHILARDVHNRIVIRGLNTIPLFVQLLYSPIENIQRVAAGVLCELAQDKEAAEAIEAEGATAPLTELLHSRNEGVATYAAAVLFRMSEDKPQDYKKRLSVELTSSLFRTEPMAWNETADLGLDIGAQGEPLGYRQDDPSYRSFHSGGYGQDALGMDPMMEHEMGGHHPGADYPVDGLPDLGHAQDLMDGLPPGDSNQLAWFDTDL
modifications: left off: large carriers; small tags and cut ends
B2: Arg 274: human β-catenin mutant, Arg 274 substituted by alanine (arm 4) (protein)
chain: B1 chain with R57A, A252R
modifications: left off: large carriers; small tags and cut ends
B3: Arg 342: human β-catenin mutant, Arg 342 substituted by alanine (arm 5) (protein)
chain: B1 chain with R125A, A252R
modifications: left off: large carriers; small tags and cut ends

Key:
Format in all cases: binding
[1] = target: T1, APC (20 amino acid repeats) (Homo sapiens, UniProt P25054); experiment: yeast 2-hybrid: interaction of β-catenin mutants with APC 20 amino acid repeats; details: yeast 2-hybrid, alanine mutants
T1 construct: for the amino acids Ser1259Asp 1400 (APC 20 amino acid repeats); expressed in transfected cells; host or cells: yeast (two-hybrid, Matchmaker, Clontech)
T1 sequence (P25054 1253-1394 limits assumed): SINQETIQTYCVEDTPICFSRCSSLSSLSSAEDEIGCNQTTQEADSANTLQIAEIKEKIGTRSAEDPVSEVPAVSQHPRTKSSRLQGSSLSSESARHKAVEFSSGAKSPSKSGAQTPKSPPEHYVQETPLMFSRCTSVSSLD
Description: (§1) The mutagenesis of β-catenin in the armadillo repeats 3–8 was carried out by means of the “mutagenesis kit” of the company Clontech according to the producer's record and the mutants were checked by sequencing (FIG. 5). In all mutants the original amino acid was substituted by alanine. For analyzing the interactions the cDNA of human β-catenin (armadillo repeat 3 up to the C-terminal end of the protein) coding for the amino acids Leu218–Leu7 μl or its mutants was cloned into the fusion vector for the activation domain of Gal-4 (pGAD424, Clontech). The cDNA for the binding domains of the interaction partners was cloned into the Lex-A fusion vector BTM 116. To this end, the cDNA of LEF-1 for the amino acids 1–99, conductin for the amino acids Ala342–ARG465; of human APC for the amino acids His1012–Glu1215 (APC 15 amino acid repeats) and for the amino acids Ser1259Asp 1400 (APC 20 amino acid repeats) and E-cadherin for the amino acids Gin773–Asp884 (cytoplasmatic domain) were amplified with the respective primers PCR. The interaction of the Lex-A hybrids with β-catenin and its mutants was quantified by means of the β-galactosidase reporter activity in the yeast 2-hybrid system (report: “Matchmaker”. Clontech) (Tab. 2 and FIG. 6).

[2] = target: T2, conductin (Mus musculus, UniProt O88566); experiment: yeast 2-hybrid: interaction of β-catenin mutants with conductin; details: for Interaction With Conductin, share of wild type β-catenin interaction: yeast 2-hybrid, alanine mutants
T2 construct: conductin for the amino acids Ala342–ARG465; expressed in transfected cells; host or cells: yeast (two-hybrid, Matchmaker, Clontech)
Description: as §1

[3] = target: T3, LEF-1 (Mus musculus, UniProt P27782); experiment: yeast 2-hybrid: interaction of β-catenin mutants with LEF-1; details: for Interaction With LEF-1, share of wild type β-catenin interaction: yeast 2-hybrid, alanine mutants
T3 construct: the cDNA of LEF-1 for the amino acids 1–99; expressed in transfected cells; host or cells: yeast (two-hybrid, Matchmaker, Clontech)
Description: as §1

[4] = target: T4, APC (15 amino acid repeats) (Homo sapiens, UniProt P25054); experiment: yeast 2-hybrid: interaction of β-catenin mutants with APC 15 amino acid repeats; details: yeast 2-hybrid, alanine mutants
T4 construct: of human APC for the amino acids His1012–Glu1215 (APC 15 amino acid repeats); expressed in transfected cells; host or cells: yeast (two-hybrid, Matchmaker, Clontech)
T4 sequence (P25054 1006-1209 limits assumed): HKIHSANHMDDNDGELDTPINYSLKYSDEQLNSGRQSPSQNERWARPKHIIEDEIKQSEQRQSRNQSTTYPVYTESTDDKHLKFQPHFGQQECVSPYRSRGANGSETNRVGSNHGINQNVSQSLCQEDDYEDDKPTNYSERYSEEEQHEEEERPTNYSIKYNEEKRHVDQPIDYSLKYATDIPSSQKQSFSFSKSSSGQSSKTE
Description: as §1

T3 sequence (P27782 1-99): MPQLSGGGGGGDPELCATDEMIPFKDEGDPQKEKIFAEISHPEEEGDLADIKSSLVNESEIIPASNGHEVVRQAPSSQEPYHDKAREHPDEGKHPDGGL
T2 sequence (O88566 343-465 limits assumed): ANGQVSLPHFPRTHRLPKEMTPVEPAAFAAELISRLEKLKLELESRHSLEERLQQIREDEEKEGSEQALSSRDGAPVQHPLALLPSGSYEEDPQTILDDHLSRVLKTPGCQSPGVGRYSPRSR

Molecule | Interaction With APC-20, share of wild type β-catenin interaction [1] | Interaction With Conductin, share of wild type β-catenin interaction [2] | interaction with LEF-1/TCF-4 ([3]; β-catenin mutation, in words) | Interaction With APC-15, share of wild type β-catenin interaction [4] | interaction with conductin ([2]; β-catenin mutation, in words) | Interaction With LEF-1, share of wild type β-catenin interaction [3]
B1 | — (Interactions marked by — correspond to 60–100% of the wild type interaction) | — (Interactions marked by — correspond to 60–100% of the wild type interaction) | blocking the interaction; also recorded: no interaction with LEF-1/TCF-4 | — (Interactions marked by — correspond to 60–100% of the wild type interaction) | – | –
B2 | 40% | 29% | – | — (Interactions marked by — correspond to 60–100% of the wild type interaction) | no interaction with conductin | — (Interactions marked by — correspond to 60–100% of the wild type interaction)
B3 | 29% | 20% | – | — (Interactions marked by — correspond to 60–100% of the wild type interaction) | – | — (Interactions marked by — correspond to 60–100% of the wild type interaction)
